According to publication PMC8654040 (Nature structural & molecular biology, 2021):
Blank lines part the entries; values can stand above or below the binder they belong to.

Assays:
[1] = target: T1, FUS SYGQ LC (FUS 1-163), N-terminal low complexity domain (UniProt P35637 1-163); experiment: intermolecular NOE NMR of a condensed phase
T1 sequence (looked up): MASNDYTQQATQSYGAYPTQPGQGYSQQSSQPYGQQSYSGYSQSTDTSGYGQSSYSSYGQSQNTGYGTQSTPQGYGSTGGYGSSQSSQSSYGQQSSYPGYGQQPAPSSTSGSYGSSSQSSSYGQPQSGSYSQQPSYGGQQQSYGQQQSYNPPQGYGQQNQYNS

[2] = target: T1, FUS SYGQ LC (FUS 1-163), N-terminal low …; experiment: co-sedimentation

B1: FUS RGG3 (453-507) (domain or fragment, UniProt P35637 453-507, looked up)
chain: DGPGGGPGGSHMGGNYGDDRRGGRGGYDRGGYRGRGGDRGGFRGGRGGGDRGGFG
binding result [1]: binds

binding result [2]: binds
B2: 488-labeled FUS SYGQ LC (FUS 1-163 labelled with DyLight 488 NHS ester) (domain or fragment, UniProt P35637 1-163, looked up)
chain: T1 sequence (looked up)
modifications: DyLight 488 (NHS ester labelling)
